Consider 54 substances from the supplement of paper PMC12042874.

± gives the uncertainty stated by the source.

The nature of this data set: amyloid nucleation score (Sup35N fusion, yeast selection) (log enrichment); library NNK3; higher = more nucleation; inactive = no reads after selection. An outline of the steps: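 Growth for 7 days at 30°C on medium lacking adenine and uracil followed a 24-hour induction with 100 μM copper sulfate of psi-negative yeast expressing peptides of 20 random codons fused to Sup35N. Input and output plasmid inserts were sequenced with Illumina, and sequences with under 100 input reads were excluded. Nucleation score is the DiMSum log enrichment of output over input reads, centred on the mode score of non-aggregating sequences.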
Turning to VSGYNW, the amyloid nucleation score entry was “inactive”.
Regarding VSIHCGRVYDWEGGFGERVN, the amyloid nucleation score result is “inactive”.
VSLGFEFMGFHAGW had an amyloid nucleation score of 1.09 ± 0.15.
Regarding VSLILFGRIFFHL, the amyloid nucleation score result was “inactive”.
For VSLLRGVLGLVV the value was “inactive”; for VSMFMNRNQKSIKNRVRHYM, “inactive”; for VSMSLDCM, “inactive”.
Regarding VSNCFTSLQT, the amyloid nucleation score entry is “inactive”.
Turning to VSRHKFFRHSCAN, the amyloid nucleation score result was “inactive”.
As to VSRKRQLWEKCGTFVQRASM, the amyloid nucleation score entry is “inactive”.
On to VSSFFSLPCTSAPVIDWVGV, for which the amyloid nucleation score entry was “inactive”.
As for VSSILQRIISYFRTARFNYL, the amyloid nucleation score entry was “inactive”.
Regarding VSSSDNSVEIDRVHKMSMVE, the amyloid nucleation score entry is “inactive”.
Turning to VSSWNSSMMIYMVLCIRMSG, the amyloid nucleation score result is “inactive”.
Regarding VSTCT, the amyloid nucleation score entry is “inactive”.
In turn, VSTGTYFSVIKEEVRLGLLH displayed an amyloid nucleation score of 0.537 ± 0.36.
In the case of VSVDWGLPRFGYTYKIL, the amyloid nucleation score entry was “inactive”.
Consider VSVLCMYFVVGPKMVRVSYG, for which the amyloid nucleation score result is “inactive”.
For VSVRVDLILKVVRRSSVWFT the value was “inactive”; for VSYSNDKGIWIYGTSLYPGA, “inactive”; for VTCWMVAVELKKIHYQCIES, “inactive”.
Consider VTEYKFKVFLPMRKRSVIMV, for which the amyloid nucleation score result is “inactive”.
Turning to VTKPFTIKGTI, the amyloid nucleation score result is “inactive”.
For the substance VTKVYGDVVLEWRHDVLFGG, the amyloid nucleation score came to 0.503 ± 0.32.
As to VTLVNKKGWSFATAITMWKR, the amyloid nucleation score result is “inactive”.
In the case of VTQSNGVHKGAR, the amyloid nucleation score entry is “inactive”.
With VTRISGTETSDVYINI the figure was 0.101 ± 0.6; with VTRPVVSQ, “inactive”.
For the substance VTSTQVMNMLD, the amyloid nucleation score result was “inactive”.
As for VTVSHCRIRFFRLESDDGLC, the amyloid nucleation score is -0.218 ± 0.88.
Turning to VTYYKSMYTREHFWTLGNSF, the amyloid nucleation score worked out at 0.69 ± 0.21.
For VVEFRNFLGIM, the amyloid nucleation score entry is “inactive”.
For the substance VVGFDSCGRWEVNVSYDSGT, the amyloid nucleation score entry is “inactive”.
As for VVGIKKDRNNTYDSSWLASC, the amyloid nucleation score result is “inactive”.
On to VVGSDGMFTCSCLREVR, for which the amyloid nucleation score result is “inactive”.
For VVHYSLVVPSDGW, the amyloid nucleation score entry is “inactive”.
With VVLTMMHRHLYVSCKLRFCS the entry was “inactive”.
In the case of VVMHAYCWLWNYSDFSIMGS, the amyloid nucleation score was found to be 1.57 ± 0.094.
With VVMRFCWRKSTIVISFVTVM, the amyloid nucleation score result is “inactive”.
For VVMSWYLVVTI, the amyloid nucleation score worked out at 0.883 ± 0.26.
Turning to VVQGGGELVWFMFYDARCGT, the amyloid nucleation score entry is “inactive”.
With VVSAV, the amyloid nucleation score result was “inactive”.
For the substance VVSFNPIKCIVCGV, the amyloid nucleation score entry was “inactive”.
Regarding VVSHGF, the amyloid nucleation score entry was “inactive”.
In the case of VVSIAIGKYNDRSMWW, the amyloid nucleation score turned out to be 1.75 ± 0.071.
As to VVSMQYCLFS, the amyloid nucleation score was 2.81 ± 0.072.
Turning to VVTHLALSKRSSAVTIFAWG, the amyloid nucleation score entry is “inactive”.
Turning to VVVGIGVAALYEPV, the amyloid nucleation score result is “inactive”.
VWEFICVGVLC: the amyloid nucleation score worked out at 2.65 ± 0.05.
For VWGAHPLFGSISVARTISNW, the amyloid nucleation score result is “inactive”.
Regarding VWPNGSKKYGLSRMTANSLL, the amyloid nucleation score result was “inactive”.
For VWQWKGRCHVTNRYWYFCSS, the amyloid nucleation score result was “inactive”.
As to VWSEDIYFCIILRLMDKS, the amyloid nucleation score result is “inactive”.
Turning to VWSVASYPSGPGKFCGGMTE, the amyloid nucleation score result is “inactive”.
